According to PMC4833857:

Molecular target: Kluyveromyces marxianus Tor (KmTor), full-length (Kluyveromyces marxianus)
Assay: SEC-MALS; 100 µl of 1 mg/ml KmTor-Lst8 complex on Superdex S200 10/300, 50 mM Tris pH 8.8 (23 °C), 300 mM NaCl, 0.3% CHAPS, 1 mM TCEP

Sequence of Kluyveromyces marxianus Tor (KmTor), full-length (Kluyveromyces marxianus) (main, as listed by the source): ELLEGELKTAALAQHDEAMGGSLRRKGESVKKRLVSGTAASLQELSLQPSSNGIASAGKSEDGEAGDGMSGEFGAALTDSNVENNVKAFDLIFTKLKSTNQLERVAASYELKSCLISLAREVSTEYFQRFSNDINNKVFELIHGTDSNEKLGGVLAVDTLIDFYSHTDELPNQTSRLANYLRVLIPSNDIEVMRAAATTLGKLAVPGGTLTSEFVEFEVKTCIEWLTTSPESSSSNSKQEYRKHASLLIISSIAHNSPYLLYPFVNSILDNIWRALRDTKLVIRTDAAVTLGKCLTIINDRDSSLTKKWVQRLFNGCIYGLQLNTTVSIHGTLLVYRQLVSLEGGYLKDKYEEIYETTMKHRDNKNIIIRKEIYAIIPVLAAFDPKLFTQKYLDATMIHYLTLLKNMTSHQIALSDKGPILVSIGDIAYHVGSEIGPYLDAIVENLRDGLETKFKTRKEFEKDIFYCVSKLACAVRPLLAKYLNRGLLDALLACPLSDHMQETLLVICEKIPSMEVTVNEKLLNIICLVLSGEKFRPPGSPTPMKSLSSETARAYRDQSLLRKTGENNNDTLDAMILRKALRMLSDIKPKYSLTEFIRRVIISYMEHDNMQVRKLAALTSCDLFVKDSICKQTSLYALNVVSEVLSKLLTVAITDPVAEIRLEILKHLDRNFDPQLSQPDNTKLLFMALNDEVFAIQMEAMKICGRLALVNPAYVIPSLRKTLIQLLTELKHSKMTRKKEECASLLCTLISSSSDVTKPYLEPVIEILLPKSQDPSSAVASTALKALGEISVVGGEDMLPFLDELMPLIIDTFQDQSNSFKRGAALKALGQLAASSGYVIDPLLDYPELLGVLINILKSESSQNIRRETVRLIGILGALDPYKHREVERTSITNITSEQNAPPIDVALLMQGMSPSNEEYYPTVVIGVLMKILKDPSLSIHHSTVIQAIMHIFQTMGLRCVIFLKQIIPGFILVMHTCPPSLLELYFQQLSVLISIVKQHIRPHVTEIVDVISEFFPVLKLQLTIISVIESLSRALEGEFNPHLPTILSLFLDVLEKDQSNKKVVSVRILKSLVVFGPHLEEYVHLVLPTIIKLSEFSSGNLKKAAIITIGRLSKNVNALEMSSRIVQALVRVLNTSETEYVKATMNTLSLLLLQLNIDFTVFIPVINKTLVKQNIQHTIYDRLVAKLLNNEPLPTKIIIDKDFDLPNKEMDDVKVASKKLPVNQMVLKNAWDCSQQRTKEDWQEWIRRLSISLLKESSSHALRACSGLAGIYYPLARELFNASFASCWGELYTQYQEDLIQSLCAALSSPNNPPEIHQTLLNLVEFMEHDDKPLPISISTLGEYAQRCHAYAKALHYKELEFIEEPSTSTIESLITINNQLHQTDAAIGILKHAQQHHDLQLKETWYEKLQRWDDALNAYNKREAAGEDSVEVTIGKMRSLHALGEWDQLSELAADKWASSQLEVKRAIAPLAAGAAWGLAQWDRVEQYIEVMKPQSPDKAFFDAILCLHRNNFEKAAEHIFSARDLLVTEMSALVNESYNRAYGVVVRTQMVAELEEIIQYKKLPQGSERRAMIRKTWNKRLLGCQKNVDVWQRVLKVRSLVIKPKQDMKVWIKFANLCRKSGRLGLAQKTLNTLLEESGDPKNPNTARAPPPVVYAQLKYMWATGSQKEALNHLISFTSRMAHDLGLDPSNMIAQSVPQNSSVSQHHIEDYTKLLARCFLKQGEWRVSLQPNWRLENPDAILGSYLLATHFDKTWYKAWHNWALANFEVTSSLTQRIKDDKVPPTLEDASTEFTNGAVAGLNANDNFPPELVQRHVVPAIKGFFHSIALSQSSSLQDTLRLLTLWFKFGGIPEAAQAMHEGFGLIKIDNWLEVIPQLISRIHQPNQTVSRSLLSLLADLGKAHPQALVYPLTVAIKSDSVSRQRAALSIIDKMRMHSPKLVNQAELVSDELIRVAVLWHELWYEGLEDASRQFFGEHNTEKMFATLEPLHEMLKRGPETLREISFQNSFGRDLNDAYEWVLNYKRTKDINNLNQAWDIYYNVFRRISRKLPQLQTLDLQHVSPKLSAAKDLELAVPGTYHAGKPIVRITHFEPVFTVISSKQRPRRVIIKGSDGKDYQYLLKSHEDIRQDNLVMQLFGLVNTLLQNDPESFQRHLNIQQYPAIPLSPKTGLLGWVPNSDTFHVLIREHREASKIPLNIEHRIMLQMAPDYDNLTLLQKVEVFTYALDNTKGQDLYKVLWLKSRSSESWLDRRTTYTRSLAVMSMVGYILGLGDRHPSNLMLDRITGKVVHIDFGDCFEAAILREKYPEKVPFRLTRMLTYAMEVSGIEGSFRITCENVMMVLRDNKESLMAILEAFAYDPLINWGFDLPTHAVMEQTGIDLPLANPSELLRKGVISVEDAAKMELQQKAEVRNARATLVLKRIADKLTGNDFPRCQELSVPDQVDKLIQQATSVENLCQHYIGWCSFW

Row | Substance | stoichiometry N
1 | Kluyveromyces marxianus Tor (KmTor), full-length | 2
2 | Kluyveromyces marxianus Lst8 (KmLst8), full-length (natural protein) | 1
